Columns and labels:
Assay in all cases: flow cytometry, transfected CHO cells
Monkey N4 = target: Monkey N4
Human N4 (human) = Human N4 (human) (UniProt Q96NY8)
Rat N4 = target: Rat N4
Mouse N4 = target: Mouse N4

Human N4 (human), sequence (Q96NY8 32-510): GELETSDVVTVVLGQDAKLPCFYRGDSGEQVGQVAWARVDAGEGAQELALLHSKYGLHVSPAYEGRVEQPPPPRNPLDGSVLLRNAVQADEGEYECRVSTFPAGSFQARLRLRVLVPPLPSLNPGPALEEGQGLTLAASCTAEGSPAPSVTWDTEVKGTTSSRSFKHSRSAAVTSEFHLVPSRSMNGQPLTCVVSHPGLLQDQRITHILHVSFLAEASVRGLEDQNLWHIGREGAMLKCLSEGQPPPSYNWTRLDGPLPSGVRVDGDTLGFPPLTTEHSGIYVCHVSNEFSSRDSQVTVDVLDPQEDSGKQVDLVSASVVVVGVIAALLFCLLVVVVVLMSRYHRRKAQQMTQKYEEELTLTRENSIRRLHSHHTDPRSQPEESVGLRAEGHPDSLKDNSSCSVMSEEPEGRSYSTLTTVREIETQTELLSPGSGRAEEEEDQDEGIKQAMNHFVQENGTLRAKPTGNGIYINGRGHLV

- EC50 (Monkey N4): 67.8 pM
- EC50 (Human N4 (human)): 346 pM
- EC50 (Rat N4): 97 pM
- EC50 (Mouse N4): 41100 pM
Substance: Enfortumab (HA22)

— patent publication US20250018053A1
